Laboratory results taken from the supplement of paper PMC12338614.
± gives the uncertainty stated by the source.

B1: library; numbered along this chain (parent)
chain: MEVVDPQQLGMFTEGELMSVGMDTFIHRIDSTEVIYQPRRKRAKLIGKYLMGDLLGEGSYGKVKEVLDSETLCRRAVKILKKKKLRRIPNGEANVKKEIQLLRRLRHKNVIQLVDVLYNEEKQKMYMVMEYCVCGMQEMLDSVPEKRFPVCQAHGYFCQLIDGLEYLHSQGIVHKDIKPGNLLLTTGGTLKISDLGVAEALHPFAADDTCRTSQGSPAFQPPEIANGLDTFSGFKVDIWSAGVTLYNITTGLYPFEGDNIYKLFENIGKGSYAIPGDCGPPLSDLLKGMLEYEPAKRFSIRQIRQHSWFRKKHPPAEAPVPIPPSPDTKDRWRSMTVVPYLEDLHGADEDEDLFDIEDDIIYTQDFTVPGQVPEEEASHNGQRRGLPKAVCMNGTEAAQLSTKSRAEGRAPNPARKACSASSKIRRLSACKQQ

Variants of: B1
Experiment: STK11 functional score (HeLa growth suppression), rescaled enrichment; synonymous median = 1, nonsense median = 0 (normalised score)
Conditions: with HeLa; variant type: missense
Protocol: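 Deep mutational scan (TileSeq/POPCode codon randomisation) of full-length codon-optimised STK11 cDNA integrated at a Bxb1 landing pad (AAVS1) in HeLa cells. Restoring functional STK11 suppresses HeLa proliferation. Variant frequencies were measured by NGS before and after about two weeks of growth. The error-corrected enrichment log-ratio was rescaled so that synonymous median = 1 and nonsense median = 0, scores above 1 were compressed, and codon-level and three biological replicate scores were combined; error is the bootstrapped standard error. Scale: synonymous median = 1, nonsense median = 0; below 0.5 = damaging.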

Variant | STK11 functional score
L45A | 0.863 ± 0.17
L45Y | 0.913 ± 0.38
L45F | 1.1 ± 0.26
L45G | 1.25 ± 0.18
L45I | 0.969 ± 0.33
L45T | 1.27 ± 0.78
L45D | 1.34 ± 0.11
L45C | 1.08 ± 0.4
L45V | 0.939 ± 0.17
L45M | 1.25 ± 0.08
L45N | 0.985 ± 0.86
L45S | 1.36 ± 0.14
L45R | 1.18 ± 0.29
L45K | 1.53 ± 0.23
L45W | 1.65 ± 0.16
K48R | 1.42 ± 0.54
K48D | 1.34 ± 0.081
K48I | 1.34 ± 0.13
K48N | 0.966 ± 0.39
K48T | 1.59 ± 0.29
K48S | 1.37 ± 0.19
K48A | 0.852 ± 0.2
K48Y | 1.4 ± 0.13
K48P | 1.41 ± 0.45

Variant | STK11 functional score
K48V | 1.24 ± 0.42
K48L | 1.3 ± 0.17
K48W | 0.798 ± 0.087
K48Q | 1.41 ± 0.37
R40V | 1.64 ± 0.25
R40I | 1.63 ± 0.21
R40W | 1.24 ± 0.38
R40P | 1.17 ± 0.38
R40E | 1.41 ± 0.47
R40A | 1.6 ± 0.36
R40M | 1.28 ± 0.43
R40T | 1.68 ± 0.32
R40G | 1.19 ± 0.27
R40C | 1.39 ± 0.074
R40S | 0.887 ± 0.15
R40D | 1.68 ± 0.41
R40L | 0.804 ± 0.16
R40K | 1 ± 0.48
R40H | 1.09 ± 0.64
R40F | 1.3 ± 0.15
Y49S | 1 ± 0.28
Y49H | 1.11 ± 0.48
Y49C | 1.01 ± 0.28
Y49F | 1.12 ± 0.3

Variant | STK11 functional score
Y49V | 0.956 ± 0.099
Y49R | 0.545 ± 0.19
Y49P | 0.101 ± 0.089
Y49L | 0.852 ± 0.22
Y49D | 0.131 ± 0.35
Y49Q | 0.0367 ± 0.35
Y49M | 1.22 ± 0.82
Y49I | 1.24 ± 0.13
K44G | 0.448 ± 0.26
K44D | 0.859 ± 0.084
K44Q | 1.24 ± 0.31
K44R | 1.12 ± 0.4
K44I | 1.16 ± 0.26
K44C | 1.12 ± 0.2
K44S | 1.4 ± 0.21
K44T | 0.843 ± 0.28
K44M | 0.633 ± 0.17
K44N | 1.08 ± 0.33
K44W | 1.3 ± 0.074
K44Y | 1.46 ± 0.087
K44L | 1.36 ± 0.2
K44F | 1.34 ± 0.26
K44A | 1.57 ± 0.37
K44V | 0.967 ± 0.15

Variant | STK11 functional score
K41D | 1.39 ± 0.18
K41V | 1.36 ± 0.19
K41P | 1.58 ± 0.37
K41Q | 0.893 ± 0.4
K41F | 1.14 ± 0.082
K41I | 0.844 ± 0.095
K41T | 1.27 ± 0.49
K41R | 1.6 ± 0.33
K41S | 1.46 ± 0.16
K41L | 1.27 ± 0.24
K41W | 1.49 ± 0.17
K41A | 1.25 ± 0.34
K41E | 1.42 ± 0.65
K41G | 1.25 ± 0.13
K41C | 1.47 ± 0.3
K41H | 1.44 ± 0.13
R42W | 1.68 ± 0.52
R42K | 1.26 ± 0.84
R42S | 1.08 ± 0.58
R42T | 0.779 ± 0.39
I46S | 0.762 ± 0.1
I46R | 0.979 ± 0.36
I46V | 0.613 ± 0.39
I46Y | 1.29 ± 0.28

Variant | STK11 functional score
I46C | 1.17 ± 0.2
I46G | 0.857 ± 0.11
I46T | 1.24 ± 0.27
I46D | 0.149 ± 0.15
I46L | 1.25 ± 0.14
I46H | 1.58 ± 0.33
I46P | 0.555 ± 0.13
I46M | 0.908 ± 0.76
I46A | 1.5 ± 0.22
I46E | 1.57 ± 0.41
I46W | 0.0413 ± 0.094
G47A | 1.4 ± 0.58
G47S | 1.62 ± 0.59
G47R | 1.31 ± 0.58
G47V | 0.431 ± 0.69
A43S | 1.34 ± 0.25
A43V | 0.673 ± 0.17
A43R | 1.64 ± 0.26
A43P | 1.37 ± 0.46
A43M | 1.57 ± 0.33
A43T | 1.43 ± 0.16
A43Y | 1.67 ± 0.16
A43G | 0.859 ± 0.32
A43Q | -0.492 ± 0.15

Variant | STK11 functional score
A43L | 1.58 ± 0.34
A43W | 1.06 ± 0.11
A43F | 1.23 ± 0.18
A43I | 1.18 ± 0.48
P38E | 1.36 ± 0.39
P38F | 1.31 ± 0.25
P38H | 1.11 ± 0.58
P38R | 0.891 ± 0.086
P38K | 1.6 ± 0.22
P38G | 0.508 ± 0.53
P38A | 1.06 ± 0.29
P38N | 0.557 ± 0.099
P38L | 0.812 ± 0.14
P38Q | 1.58 ± 0.15
P38W | 0.876 ± 0.077
P38Y | 0.0651 ± 0.12
P38V | 1.01 ± 0.095
P38M | 1.09 ± 0.92
P38S | 1.06 ± 0.12
P38T | 0.9 ± 0.23
P38D | 1.7 ± 0.3
R39M | 1.58 ± 0.16
R39I | 1.12 ± 0.38
R39Q | 0.277 ± 0.097

Variant | STK11 functional score
R39E | -0.363 ± 0.48
R39N | 0.65 ± 0.66
R39C | 0.223 ± 0.2
R39V | 1.22 ± 0.14
R39L | 1.45 ± 0.17
R39D | 1.19 ± 0.099
R39G | 1.04 ± 0.45
R39W | 1.22 ± 0.49
R39A | 1.12 ± 0.42
R39T | 0.548 ± 0.26
R39S | 1.17 ± 0.36
R39H | 1.13 ± 0.23
R39K | 0.866 ± 0.75
Q37N | 0.934 ± 0.53
Q37T | 1.69 ± 0.12
Q37R | 1.34 ± 0.29
Q37L | 1.15 ± 0.3
Q37S | 1.34 ± 0.13
Q37P | 1.16 ± 0.21
Q37W | 0.288 ± 0.12
Q37M | 1.17 ± 0.1
Q37I | 1.65 ± 0.17
Q37V | 1.38 ± 0.15
